From patent US20100330095A1 (U3 PHARMA, published 2010) come the findings set out here.

To fix the notation:
B1: III 11D5 (antibody, rat IgG2a, V domains shown)
VH: EVQLQESGPGLVKPSQSLSLTCSVTGYSITSNYWGWIRKFPGNKMEWIGHITNSGNTTYNPSLKSRISISRDTSRNQFFLQLNSVTTEDTATYYCAKGAFDYWGQGVMVTVSS
VL: DIQMTQSPSSMSTSLGDRVTITCRASQDIGNYLSWFQQKVGKSPRRMIYGAIKLAVGVPSRFSGSRSGSDYSLTISSLESEDMAIYYCLQYIQFPLTFGSGTKLELK
notes: rat hybridoma antibody, antagonistic
B2: I 11B7 (antibody, V domains shown)
VH: EVQLQESGPGLVKPSQSLSLTCSVTGYSITSNYWGWIRKFPGDKMEWMGYITYSGSTSYNPSLKSRISITRDTSKNQFFLQLNSVTSEDTATYYCAITTFYYWGQGVMVTVSS
VL: DIQMTQAPSSLPASLGDRVTITCRASQDIGNYLRWFQQKPGKSPRLMISGATNLAAGVPSRFSGSRSGSDYSLTISSLESEDMADYYCLQSKESPWTFGGGTKLELK
notes: as for B1
B3: I 10D12 (antibody, V domains shown)
VH: EVQLQESGPGLVKPSQSLSLTCSVTGYSITSNYWGWIRKFPGNKMEWMGYITNSGGTAYNPSLKSRISITRDTSKNQFFLQLNSVIPEDSATYFCSRTPWDWGQGVMVTVSS
VL: B2 VL with T22A, L73R
notes: rat hybridoma antibody, antagonistic; subclass G1

Residue numbers refer to the chain shown, from its start.

One experiment has as its target T1, mouse AXL (mouse, UniProt Q00993 19-888).
T1 construct: whole, on cells; Transiently expressed on HEK293T cells (pcDNA3-mAXL); also called mAXL
T1 sequence (looked up): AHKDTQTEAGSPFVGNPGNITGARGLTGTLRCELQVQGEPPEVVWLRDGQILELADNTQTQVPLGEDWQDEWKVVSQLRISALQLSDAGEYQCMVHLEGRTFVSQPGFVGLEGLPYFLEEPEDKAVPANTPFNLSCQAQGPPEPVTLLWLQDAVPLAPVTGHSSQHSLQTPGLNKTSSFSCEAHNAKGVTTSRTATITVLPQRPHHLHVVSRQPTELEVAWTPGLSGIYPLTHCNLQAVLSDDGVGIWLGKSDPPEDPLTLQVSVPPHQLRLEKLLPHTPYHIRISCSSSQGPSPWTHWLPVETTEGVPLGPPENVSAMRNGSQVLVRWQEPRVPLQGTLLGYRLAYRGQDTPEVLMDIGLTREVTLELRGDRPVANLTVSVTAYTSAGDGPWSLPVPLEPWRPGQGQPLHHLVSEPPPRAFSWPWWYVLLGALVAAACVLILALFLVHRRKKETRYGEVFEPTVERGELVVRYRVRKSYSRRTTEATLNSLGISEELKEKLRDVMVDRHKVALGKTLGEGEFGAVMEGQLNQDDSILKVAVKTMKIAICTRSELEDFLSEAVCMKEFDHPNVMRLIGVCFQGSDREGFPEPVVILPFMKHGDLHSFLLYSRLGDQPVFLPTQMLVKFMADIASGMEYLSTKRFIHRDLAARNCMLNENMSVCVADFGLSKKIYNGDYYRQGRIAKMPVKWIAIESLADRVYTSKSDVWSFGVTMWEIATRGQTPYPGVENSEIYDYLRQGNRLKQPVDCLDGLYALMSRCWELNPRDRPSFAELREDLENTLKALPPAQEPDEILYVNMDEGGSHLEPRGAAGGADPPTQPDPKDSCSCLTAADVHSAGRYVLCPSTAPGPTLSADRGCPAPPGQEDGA
Description: flow cytometry, transiently transfected HEK293T cells. Here is the method:
(§1) FIG. 3. Flow cytometry analysis of cross-reactivity of rat-anti AXL antibodies with mouse and cynomolgus monkey AXL as well as human Mer and Sky. HEK293T fibroblasts were transiently transfected with pcDNA3, pcDNA3-hAXL, pcDNA3 mAXL, pcDNA3-cyAXL, pcDNA3-hMer, or pcDNA3-hSky. […] See text for details.
(§2) For FACS analysis, 2×10⁵ cells were harvested with 10 mM EDTA in PBS, washed once with FACS buffer (PBS, 3% FCS, 0.4% azide) and seeded on a 96 well round bottom plate. […] After incubation on ice for 1 h, cells were washed twice with chilled FACS buffer and resuspended with PE-conjugated donkey anti-rat (Jackson) secondary antibody diluted 1:50 in FACS buffer (100 μl/well) or PE-conjugated donkey anti-mouse secondary antibody for control. Protected from light, cells were incubated on ice for 30 min, washed twice with FACS buffer and analyzed using an Epics XL-MCL flow cytometer (Beckman Coulter).
For B1, the binding result is listed as “no binding (tested: 10 µg/ml)”.

Take B2: the binding result was “no binding (tested: 10 µg/ml)”.

Take B3: the binding result is on record as “no binding (tested: 10 µg/ml)”.

The next experiment concerns the target T2, human Sky (human, UniProt Q06418 41-890).
T2 construct: whole, on cells; Transiently expressed on HEK293T cells (pcDNA3-hSky); also called hSky
T2 sequence (looked up): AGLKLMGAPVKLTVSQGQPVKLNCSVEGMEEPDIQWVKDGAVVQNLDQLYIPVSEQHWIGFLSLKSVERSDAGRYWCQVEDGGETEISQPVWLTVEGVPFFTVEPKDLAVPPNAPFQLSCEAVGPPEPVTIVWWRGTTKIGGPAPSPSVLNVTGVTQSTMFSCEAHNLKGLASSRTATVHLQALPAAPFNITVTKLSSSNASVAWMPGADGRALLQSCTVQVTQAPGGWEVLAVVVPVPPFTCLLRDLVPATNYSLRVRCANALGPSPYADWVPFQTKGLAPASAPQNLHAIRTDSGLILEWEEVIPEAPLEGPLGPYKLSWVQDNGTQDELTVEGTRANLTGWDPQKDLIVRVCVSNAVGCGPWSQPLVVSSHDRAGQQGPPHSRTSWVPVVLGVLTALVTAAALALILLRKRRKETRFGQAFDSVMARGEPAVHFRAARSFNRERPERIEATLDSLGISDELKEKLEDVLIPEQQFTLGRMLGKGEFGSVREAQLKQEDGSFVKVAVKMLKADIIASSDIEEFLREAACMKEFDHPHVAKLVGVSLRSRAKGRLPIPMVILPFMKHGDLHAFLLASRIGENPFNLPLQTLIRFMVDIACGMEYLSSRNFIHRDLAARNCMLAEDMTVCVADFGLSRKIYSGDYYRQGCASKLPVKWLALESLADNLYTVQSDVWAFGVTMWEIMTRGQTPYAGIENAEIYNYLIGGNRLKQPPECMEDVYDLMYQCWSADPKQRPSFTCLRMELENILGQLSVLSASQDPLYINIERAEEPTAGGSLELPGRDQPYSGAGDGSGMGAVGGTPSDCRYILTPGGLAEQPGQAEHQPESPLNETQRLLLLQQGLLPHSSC
The experiment is described as above. As to the method:
as §1, §2
As to B1, the binding result was “no binding (tested: 10 µg/ml)”.

Regarding B2, the binding result is on record as “no binding (tested: 10 µg/ml)”.

For B3, the binding result is given as “no binding (tested: 10 µg/ml)”.
